This note sets out measurements from US20030108992A1.

Holding throughout (conditions): remark: other sources report otherwise
For test [1], the target named is T1, Fas with the death domain, CFP and YFP fusions (human), P25445.
T1 chain: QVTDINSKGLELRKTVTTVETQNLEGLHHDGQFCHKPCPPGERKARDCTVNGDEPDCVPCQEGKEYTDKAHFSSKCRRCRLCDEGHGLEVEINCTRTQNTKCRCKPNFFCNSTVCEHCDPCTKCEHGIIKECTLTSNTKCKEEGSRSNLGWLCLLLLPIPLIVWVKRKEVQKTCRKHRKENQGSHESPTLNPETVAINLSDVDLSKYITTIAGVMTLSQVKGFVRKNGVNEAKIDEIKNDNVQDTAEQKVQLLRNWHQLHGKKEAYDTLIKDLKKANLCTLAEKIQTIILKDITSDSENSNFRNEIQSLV
In words: CFP dequenching after YFP photobleaching, fluorescence microscope.

In test [2] the target is T2, Fas (endogenous, native receptor on T lymphoma cells), P25445.
T2 chain: T1 chain
The experiment in a line: DTSSP crosslinking of H9 lymphoma cells, anti-Fas Western blot of deglycosylated lysates.

In test [3] the target is T3, p60 TNFR (endogenous), P19438.
T3 chain: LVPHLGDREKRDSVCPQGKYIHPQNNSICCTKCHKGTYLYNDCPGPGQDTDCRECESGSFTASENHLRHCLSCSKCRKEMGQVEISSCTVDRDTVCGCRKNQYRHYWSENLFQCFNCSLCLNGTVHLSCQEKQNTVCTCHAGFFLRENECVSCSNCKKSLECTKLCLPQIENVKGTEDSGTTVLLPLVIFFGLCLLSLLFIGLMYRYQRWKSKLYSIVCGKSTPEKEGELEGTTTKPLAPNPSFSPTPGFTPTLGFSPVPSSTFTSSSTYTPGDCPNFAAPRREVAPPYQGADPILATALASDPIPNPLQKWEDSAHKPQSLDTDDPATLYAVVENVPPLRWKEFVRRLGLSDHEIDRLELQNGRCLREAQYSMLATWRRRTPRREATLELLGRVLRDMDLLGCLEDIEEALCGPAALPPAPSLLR
The experiment in a line: DTSSP crosslinking of H9 cells with or without TNFα, non-reducing Western blot.

B1: Fas with the death domain, CFP and YFP fusions, P25445 26-335 (receptor, human, UniProt P25445 26-335, looked up, not shown: large carriers)
chain: T1 chain
For B1, the FRET efficiency in test [1] is 27%.

B2: Fas (endogenous, native receptor on T lymphoma cells), P25445 26-335 (receptor, UniProt P25445 26-335, looked up)
chain: T1 chain
In the case of B2, the percent of chains cross-linked as trimers (densitometry) in test [2] was determined as 60%.

B3: p60 TNFR (endogenous), P19438 30-455 (receptor, UniProt P19438 30-455, looked up)
chain: T3 chain
B3: the percent of chains cross-linked as apparent trimers and higher order complexes in test [3] lay in the range of 15 to 20%.
